pKd: −log10 of the molar value.
Key:
Assay in all cases: MST
Settings in all cases: 5-bromo-dC at every C, MST at 22 C, 5 nM labeled DNA, 0.5 mg/ml BSA, 0.05% Tween 20, 5 mM HEPES pH 7.5, 20 mM NaCl (Table 2), 20 mM HEPES pH 8.0, 100 mM NaCl (Table 4)
hZαADAR1 (human) [1] = molecular target: T1, hZαADAR1 (human) (UniProt P55265)
T1 sequence: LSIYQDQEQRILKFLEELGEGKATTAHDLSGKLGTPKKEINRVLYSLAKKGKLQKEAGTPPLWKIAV

vvZαE3L = vvZαE3L (UniProt P21605)
hZαADAR1 (human) [2] = molecular target: T1, hZαADAR1 (human); remark: listed apart in the source
[3] = molecular target: T2, GH5*:α3NADAR1-PW K41G;S42G;R43G;K53A;R95A;del65;D66K;L67K;Q68E;K70N;L71R;S72V;I73L;R74Y;R75S;S91P;F94W (/ human ADAR1 α3N and β-wing residues) (UniProt P02259)
T2 sequence: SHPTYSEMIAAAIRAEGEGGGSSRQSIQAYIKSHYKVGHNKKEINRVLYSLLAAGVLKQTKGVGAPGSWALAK

## TCGCGCGCGCGCGCGCGCGCGCGCGCGCGCG (double strand) [Z-DNA, [d(5'-Cy5-T(Br5CG)15)]2]
hZαADAR1 (human) [1]
  pKd: 7.74
vvZαE3L
  pKd: 5.70
hZαADAR1 (human) [2]
  pKd: 6.22
[3]
  pKd: 5.74

Reference: PMC7736808
